The values below come from patent EP0571085A1 (BAYLOR COLLEGE OF MEDICINE, dated 1993).

The chains are these.
B1: human creatine kinase M subunit (wild-type) (enzyme)
chain: not shown
notes: One subunit (monomer) that associates into dimers; Tested in crude detergent extracts of transfected COS cells; also called M creatine kinase; M CK

Series [1] concerns the molecule itself. Description: nondenaturing electrophoresis of extracts of COS cells cotransfected with M, mutant M and B constructs (dimer formation).
The target in series [2] is B1. Description: nondenaturing electrophoresis of extracts of COS cells cotransfected with all three constructs.
Series [3] concerns the molecule itself. In words: nondenaturing electrophoresis of extracts of COS cells cotransfected with M, B and lys⁻M constructs.

Turning to B1, in series [1], the binding result was “binds”.

B2: human creatine kinase B subunit (wild-type) (enzyme)
chain: not shown
notes: One subunit (monomer) that associates into dimers; Tested in crude detergent extracts of transfected COS cells; also called B creatine kinase; B CK
In the case of B2, the binding result in series [2] and in series [3] was “binds” throughout.
